# Test results taken from PMC13364712.
# Biological target: actin filaments (actin from Gallus gallus skeletal muscle) (Gallus gallus (chicken)), P68139
# Assay: co-sedimentation; 4 µM EGFP–SFM peptide with 0–200 µM actin filaments in F buffer, 1 h at room temperature, 100,000g for 30 min; pellet read by anti-EGFP western blot; one-site specific binding fit; apparent
binder,measurement,value
"RRSVGELRLLFEARCAAVAAAA (modifications not checked) [EGFP-tagged ITPKA SFM peptide, P23677 1-461]",Kd,2 µM
